# Reference: patent US20180086849A1 (Hoffmann-La Roche, published 2018)
# T1: hu-MCSP(D3 domain)-avi-his (human, UniProt Q6UVK1 1582-2224, biotinylated where used for selection or for coupling to the SA chip)
# T1 construct: also called human MCSP(D3 domain)-avi-his; human MCSP D3
# T1 sequence: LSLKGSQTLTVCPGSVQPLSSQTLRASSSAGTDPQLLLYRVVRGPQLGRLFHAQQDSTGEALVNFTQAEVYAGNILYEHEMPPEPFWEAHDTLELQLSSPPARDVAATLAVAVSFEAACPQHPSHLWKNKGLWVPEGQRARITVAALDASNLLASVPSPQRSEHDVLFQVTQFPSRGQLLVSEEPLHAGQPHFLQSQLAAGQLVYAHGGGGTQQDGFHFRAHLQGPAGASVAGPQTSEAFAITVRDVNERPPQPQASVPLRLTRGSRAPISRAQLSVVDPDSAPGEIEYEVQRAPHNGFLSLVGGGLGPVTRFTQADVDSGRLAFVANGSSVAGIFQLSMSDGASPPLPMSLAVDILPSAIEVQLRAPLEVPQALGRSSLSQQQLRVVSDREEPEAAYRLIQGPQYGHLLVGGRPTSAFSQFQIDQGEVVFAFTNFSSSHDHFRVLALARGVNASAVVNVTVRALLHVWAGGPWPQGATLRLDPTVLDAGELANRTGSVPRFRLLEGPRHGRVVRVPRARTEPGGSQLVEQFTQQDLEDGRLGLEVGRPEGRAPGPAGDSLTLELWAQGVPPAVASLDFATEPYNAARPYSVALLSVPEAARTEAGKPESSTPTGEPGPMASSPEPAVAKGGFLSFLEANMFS
# T2: cynomolgus MCSP D3 (cynomolgus, UniProt Q6UVK1 1582-2224 (human entry))
# T2 construct: also called cynomolgus homologue; not shown: C-terminal tag
# T2 chain: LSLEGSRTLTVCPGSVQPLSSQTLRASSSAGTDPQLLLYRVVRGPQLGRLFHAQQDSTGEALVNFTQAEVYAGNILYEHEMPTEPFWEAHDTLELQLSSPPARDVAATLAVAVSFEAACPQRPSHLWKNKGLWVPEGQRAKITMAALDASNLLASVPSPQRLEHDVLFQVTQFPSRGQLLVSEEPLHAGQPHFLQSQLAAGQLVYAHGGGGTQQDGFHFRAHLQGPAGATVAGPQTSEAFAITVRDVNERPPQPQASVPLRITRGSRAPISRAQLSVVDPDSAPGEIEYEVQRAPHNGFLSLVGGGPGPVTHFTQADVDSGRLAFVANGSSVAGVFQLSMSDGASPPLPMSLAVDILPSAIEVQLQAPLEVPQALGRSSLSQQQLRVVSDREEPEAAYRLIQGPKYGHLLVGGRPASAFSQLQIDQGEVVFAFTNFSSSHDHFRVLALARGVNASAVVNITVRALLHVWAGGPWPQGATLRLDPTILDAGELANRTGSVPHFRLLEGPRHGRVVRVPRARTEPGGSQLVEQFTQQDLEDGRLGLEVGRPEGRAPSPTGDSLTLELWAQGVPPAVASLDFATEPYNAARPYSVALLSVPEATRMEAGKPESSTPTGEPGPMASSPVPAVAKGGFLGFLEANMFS
# B1: 1+1 IgG Crossfab; VL/VH exchange (LC007/V9), anti-MCSP/anti-huCD3 (bispecific antibody)
# chain 1: DIVLTQSPSSLSASLGDRVTISCSASQGIRNYLNWYQQRPDGTVKLLIYYTSSLHSGVPSRFSGSGSGTDYSLTISNLEPEDIATYYCQQYSKLPWTFGGGTKLEIKRTVAAPSVFIFPPSDEQLKSGTASVVCLLNNFYPREAKVQWKVDNALQSGNSQESVTEQDSKDSTYSLSSTLTLSKADYEKHKVYACEVTHQGLSSPVTKSFNRGEC
# chain 2: DIQMTQSPSSLSASVGDRVTITCRASQDIRNYLNWYQQKPGKAPKLLIYYTSRLESGVPSRFSGSGSGTDYTLTISSLQPEDFATYYCQQGNTLPWTFGQGTKVEIKSSASTKGPSVFPLAPSSKSTSGGTAALGCLVKDYFPEPVTVSWNSGALTSGVHTFPAVLQSSGLYSLSSVVTVPSSSLGTQTYICNVNHKPSNTKVDKKVEPKSCGGGGSGGGGSEVQLQESGPGLVKPSQSLSLTCSVTGYSITSGYYWNWIRQFPGNKLEWMGYITYDGSNNYNPSLKNRISITRDTSKNQFFLKLNSVTTEDTATYYCADFDYWGQGTTLTVSSASTKGPSVFPLAPSSKSTSGGTAALGCLVKDYFPEPVTVSWNSGALTSGVHTFPAVLQSSGLYSLSSVVTVPSSSLGTQTYICNVNHKPSNTKVDKKVEPKSCDKTHTCPPCPAPEAAGGPSVFLFPPKPKDTLMISRTPEVTCVVVDVSHEDPEVKFNWYVDGVEVHNAKTKPREEQYNSTYRVVSVLTVLHQDWLNGKEYKCKVSNKALGAPIEKTISKAKGQPREPQVCTLPPSRDELTKNQVSLSCAVKGFYPSDIAVEWESNGQPENNYKTTPPVLDSDGSFFLVSKLTVDKSRWQQGNVFSCSVMHEALHNHYTQKSLSLSPGK
# chain 3: EVQLVESGGGLVQPGGSLRLSCAASGYSFTGYTMNWVRQAPGKGLEWVALINPYKGVSTYNQKFKDRFTISVDKSKNTAYLQMNSLRAEDTAVYYCARSGYYGDSDWYFDVWGQGTLVTVSSASVAAPSVFIFPPSDEQLKSGTASVVCLLNNFYPREAKVQWKVDNALQSGNSQESVTEQDSKDSTYSLSSTLTLSKADYEKHKVYACEVTHQGLSSPVTKSFNRGEC
# chain 4: not shown
# B2: 1+1 CrossMab; CL/CH1 exchange (LC007/V9), anti-MCSP/anti-huCD3 (bispecific antibody, human IgG1, kappa, L234A L235A)
# chain 1: DIVLTQSPSSLSASLGDRVTISCSASQGIRNYLNWYQQRPDGTVKLLIYYTSSLHSGVPSRFSGSGSGTDYSLTISNLEPEDIATYYCQQYSKLPWTFGGGTKLEIKRTVAAPSVFIFPPSDEQLKSGTASVVCLLNNFYPREAKVQWKVDNALQSGNSQESVTEQDSKDSTYSLSSTLTLSKADYEKHKVYACEVTHQGLSSPVTKSFNRGEC
# chain 2: EVQLQESGPGLVKPSQSLSLTCSVTGYSITSGYYWNWIRQFPGNKLEWMGYITYDGSNNYNPSLKNRISITRDTSKNQFFLKLNSVTTEDTATYYCADFDYWGQGTTLTVSSASTKGPSVFPLAPSSKSTSGGTAALGCLVKDYFPEPVTVSWNSGALTSGVHTFPAVLQSSGLYSLSSVVTVPSSSLGTQTYICNVNHKPSNTKVDKKVEPKSCDKTHTCPPCPAPEAAGGPSVFLFPPKPKDTLMISRTPEVTCVVVDVSHEDPEVKFNWYVDGVEVHNAKTKPREEQYNSTYRVVSVLTVLHQDWLNGKEYKCKVSNKALGAPIEKTISKAKGQPREPQVCTLPPSRDELTKNQVSLSCAVKGFYPSDIAVEWESNGQPENNYKTTPPVLDSDGSFFLVSKLTVDKSRWQQGNVFSCSVMHEALHNHYTQKSLSLSPGK
# chain 3: DIQMTQSPSSLSASVGDRVTITCRASQDIRNYLNWYQQKPGKAPKLLIYYTSRLESGVPSRFSGSGSGTDYTLTISSLQPEDFATYYCQQGNTLPWTFGQGTKVEIKSSASTKGPSVFPLAPSSKSTSGGTAALGCLVKDYFPEPVTVSWNSGALTSGVHTFPAVLQSSGLYSLSSVVTVPSSSLGTQTYICNVNHKPSNTKVDKKVEPKSC
# chain 4: not shown
# B3: 2+1 IgG Crossfab; VL/VH exchange (M4-3 ML2/V9), anti-MCSP/anti-huCD3 (bispecific antibody)
# chain 1: EVQLVESGGGLVQPGGSLRLSCAASGYSFTGYTMNWVRQAPGKGLEWVALINPYKGVSTYNQKFKDRFTISVDKSKNTAYLQMNSLRAEDTAVYYCARSGYYGDSDWYFDVWGQGTLVTVSSASVAAPSVFIFPPSDEQLKSGTASVVCLLNNFYPREAKVQWKVDNALQSGNSQESVTEQDSKDSTYSLSSTLTLSKADYEKHKVYACEVTHQGLSSPVTKSFNRGEC
# chain 2: not shown
# chain 3: not shown
# chain 4: QVQLQESGPGLVKPSQTLSLTCTVSGGSITSGYYWNWIRQHPGKGLEWIGYITYDGSNNYNPSLKSRVTISRDTSKNQFSLKLSSVTAADTAVYYCADFDYWGQGTLVTVSSASTKGPSVFPLAPSSKSTSGGTAALGCLVKDYFPEPVTVSWNSGALTSGVHTFPAVLQSSGLYSLSSVVTVPSSSLGTQTYICNVNHKPSNTKVDKKVEPKSCDKTHTCPPCPAPEAAGGPSVFLFPPKPKDTLMISRTPEVTCVVVDVSHEDPEVKFNWYVDGVEVHNAKTKPREEQYNSTYRVVSVLTVLHQDWLNGKEYKCKVSNKALGAPIEKTISKAKGQPREPQVCTLPPSRDELTKNQVSLSCAVKGFYPSDIAVEWESNGQPENNYKTTPPVLDSDGSFFLVSKLTVDKSRWQQGNVFSCSVMHEALHNHYTQKSLSLSPGK
# B4: M4-3/ML2 (E10/G3) (IgG) (antibody, V domains shown)
# VH: QVQLQESGPGLVKPSQTLSLTCTVSGGSITSGYYWNWIRQHPGKGLEWIGYITYDGSNNYNPSLKSRVTISRDTSKNQFSLKLSSVTAADTAVYYCADFDYWGQGTLVTVSS
# VL: DIQMTQSPSSLSASVGDRVTITCRASYGIRGYLNWYQQKPGKAPKLLIYYTSSLHSGVPSRFSGSGSGTDFTLTISSLQPEDFATYHCQQYSALPWTFGQGTKVEIK
# notes: Human IgG1 format
# B5: M4-3(C1)/ML2(G3) (IgG) (antibody, V domains shown)
# VH: QVQLQESGPGLVKPSQTLSLTCTVSGGSITSGYYWNWIRQHPGKGLEWIGYITFDGSNNYNPSLKSRVTISRDTSKNQFSLKLSSVTAADTAVYYCADFDYWGQGTLVTVSS
# VL: DIQMTQSPSSLSASVGDRVTITCRASQGIRNYLNWYQQKPGKAPKLLIYYTSSLHSGVPSRFSGSGSGTDYTLTISSLQPEDFATYYCQQYSALPWTFGQGTKVEIKR
# notes: Human IgG1; also called MCSP M4-3(C1) ML2(G3)
# B6: 2+1 IgG Crossfab; CL/CH1 exchange (M4-3 ML2/V9), anti-MCSP/anti-huCD3 (bispecific antibody)
# chain 1: DIQMTQSPSSLSASVGDRVTITCRASQDIRNYLNWYQQKPGKAPKLLIYYTSRLESGVPSRFSGSGSGTDYTLTISSLQPEDFATYYCQQGNTLPWTFGQGTKVEIKSSASTKGPSVFPLAPSSKSTSGGTAALGCLVKDYFPEPVTVSWNSGALTSGVHTFPAVLQSSGLYSLSSVVTVPSSSLGTQTYICNVNHKPSNTKVDKKVEPKSC
# chain 2: not shown
# chain 3: QVQLQESGPGLVKPSQTLSLTCTVSGGSITSGYYWNWIRQHPGKGLEWIGYITYDGSNNYNPSLKSRVTISRDTSKNQFSLKLSSVTAADTAVYYCADFDYWGQGTLVTVSSASTKGPSVFPLAPSSKSTSGGTAALGCLVKDYFPEPVTVSWNSGALTSGVHTFPAVLQSSGLYSLSSVVTVPSSSLGTQTYICNVNHKPSNTKVDKKVEPKSCDKTHTCPPCPAPEAAGGPSVFLFPPKPKDTLMISRTPEVTCVVVDVSHEDPEVKFNWYVDGVEVHNAKTKPREEQYNSTYRVVSVLTVLHQDWLNGKEYKCKVSNKALGAPIEKTISKAKGQPREPQVCTLPPSRDELTKNQVSLSCAVKGFYPSDIAVEWESNGQPENNYKTTPPVLDSDGSFFLVSKLTVDKSRWQQGNVFSCSVMHEALHNHYTQKSLSLSPGK
# chain 4: not shown
# Columns and labels:
# [1] = molecular target: human MCSP (Melanoma-associated Chondroitin Sulfate Proteoglycan) on cells (human, UniProt Q6UVK1 30-2322); assay: cell-based or functional assay
# [2] = molecular target: T1, hu-MCSP(D3 domain)-avi-his; assay: SPR (ProteOn XPR36), IgG KD against parental M4-3/ML2
# Description: (§1) Briefly, carboxymethylated dextran biosensor chips (CM5, GE Healthcare) were activated with N-ethyl-N′-(3-dimethylaminopropyl)-carbodiimide hydrochloride (EDC) and N-hydroxysuccinimide (NHS) according to the supplier's instructions. Anti-human F(ab′)2 fragment specific capture antibody was diluted with 10 mM sodium acetate, pH 5.0 at 50 μg/ml before injection at a flow rate of 10 μl/minute to achieve approximately up to 10.000 response units (RU) of coupled capture antibody. Following the injection of the capture antibody, 1 M ethanolamine was injected to block unreacted groups. For kinetics measurements, Fabs from bacterial supernatant or purified Fabs are injected at a flow rate of 10 ul/minute for 300 s and a dissociation of 300 s for capture baseline stabilization. […] The surface of the sensorchip was regenerated by injection of glycine pH 1.5 for 30 s at 90 ul/min followed by injection of NaOH for 20 s at the same flow rate. Association rates (kon) and dissociation rates (koff) were calculated using a simple one-to-one Langmuir binding model (ProteOn XPR36 Evaluation Software or Scrubber software (BioLogic)) by simultaneously fitting the association and dissociation sensorgrams. The equilibrium dissociation constant (KD) was calculated as the ratio koff/kon. […] Since CDR1 and 2 of the light chain were randomized independent from CDR3, the obtained CDRs were combined during IgG conversion.
# (§2) In the IgG format affinities were measured again to the human MCSP antigen (SEQ ID NO. 390), in addition also to the cynomolgus homologue (SEQ ID NO. 389). Method exactly as described for the Fab fragments, just purified IgG from mammalian production were used.
# [3] = molecular target: T2, cynomolgus MCSP D3; assay: as above
# Description: as §1, §2
# Chain of human MCSP (Melanoma-associated Chondroitin Sulfate Proteoglycan) on cells (Q6UVK1 30-2322): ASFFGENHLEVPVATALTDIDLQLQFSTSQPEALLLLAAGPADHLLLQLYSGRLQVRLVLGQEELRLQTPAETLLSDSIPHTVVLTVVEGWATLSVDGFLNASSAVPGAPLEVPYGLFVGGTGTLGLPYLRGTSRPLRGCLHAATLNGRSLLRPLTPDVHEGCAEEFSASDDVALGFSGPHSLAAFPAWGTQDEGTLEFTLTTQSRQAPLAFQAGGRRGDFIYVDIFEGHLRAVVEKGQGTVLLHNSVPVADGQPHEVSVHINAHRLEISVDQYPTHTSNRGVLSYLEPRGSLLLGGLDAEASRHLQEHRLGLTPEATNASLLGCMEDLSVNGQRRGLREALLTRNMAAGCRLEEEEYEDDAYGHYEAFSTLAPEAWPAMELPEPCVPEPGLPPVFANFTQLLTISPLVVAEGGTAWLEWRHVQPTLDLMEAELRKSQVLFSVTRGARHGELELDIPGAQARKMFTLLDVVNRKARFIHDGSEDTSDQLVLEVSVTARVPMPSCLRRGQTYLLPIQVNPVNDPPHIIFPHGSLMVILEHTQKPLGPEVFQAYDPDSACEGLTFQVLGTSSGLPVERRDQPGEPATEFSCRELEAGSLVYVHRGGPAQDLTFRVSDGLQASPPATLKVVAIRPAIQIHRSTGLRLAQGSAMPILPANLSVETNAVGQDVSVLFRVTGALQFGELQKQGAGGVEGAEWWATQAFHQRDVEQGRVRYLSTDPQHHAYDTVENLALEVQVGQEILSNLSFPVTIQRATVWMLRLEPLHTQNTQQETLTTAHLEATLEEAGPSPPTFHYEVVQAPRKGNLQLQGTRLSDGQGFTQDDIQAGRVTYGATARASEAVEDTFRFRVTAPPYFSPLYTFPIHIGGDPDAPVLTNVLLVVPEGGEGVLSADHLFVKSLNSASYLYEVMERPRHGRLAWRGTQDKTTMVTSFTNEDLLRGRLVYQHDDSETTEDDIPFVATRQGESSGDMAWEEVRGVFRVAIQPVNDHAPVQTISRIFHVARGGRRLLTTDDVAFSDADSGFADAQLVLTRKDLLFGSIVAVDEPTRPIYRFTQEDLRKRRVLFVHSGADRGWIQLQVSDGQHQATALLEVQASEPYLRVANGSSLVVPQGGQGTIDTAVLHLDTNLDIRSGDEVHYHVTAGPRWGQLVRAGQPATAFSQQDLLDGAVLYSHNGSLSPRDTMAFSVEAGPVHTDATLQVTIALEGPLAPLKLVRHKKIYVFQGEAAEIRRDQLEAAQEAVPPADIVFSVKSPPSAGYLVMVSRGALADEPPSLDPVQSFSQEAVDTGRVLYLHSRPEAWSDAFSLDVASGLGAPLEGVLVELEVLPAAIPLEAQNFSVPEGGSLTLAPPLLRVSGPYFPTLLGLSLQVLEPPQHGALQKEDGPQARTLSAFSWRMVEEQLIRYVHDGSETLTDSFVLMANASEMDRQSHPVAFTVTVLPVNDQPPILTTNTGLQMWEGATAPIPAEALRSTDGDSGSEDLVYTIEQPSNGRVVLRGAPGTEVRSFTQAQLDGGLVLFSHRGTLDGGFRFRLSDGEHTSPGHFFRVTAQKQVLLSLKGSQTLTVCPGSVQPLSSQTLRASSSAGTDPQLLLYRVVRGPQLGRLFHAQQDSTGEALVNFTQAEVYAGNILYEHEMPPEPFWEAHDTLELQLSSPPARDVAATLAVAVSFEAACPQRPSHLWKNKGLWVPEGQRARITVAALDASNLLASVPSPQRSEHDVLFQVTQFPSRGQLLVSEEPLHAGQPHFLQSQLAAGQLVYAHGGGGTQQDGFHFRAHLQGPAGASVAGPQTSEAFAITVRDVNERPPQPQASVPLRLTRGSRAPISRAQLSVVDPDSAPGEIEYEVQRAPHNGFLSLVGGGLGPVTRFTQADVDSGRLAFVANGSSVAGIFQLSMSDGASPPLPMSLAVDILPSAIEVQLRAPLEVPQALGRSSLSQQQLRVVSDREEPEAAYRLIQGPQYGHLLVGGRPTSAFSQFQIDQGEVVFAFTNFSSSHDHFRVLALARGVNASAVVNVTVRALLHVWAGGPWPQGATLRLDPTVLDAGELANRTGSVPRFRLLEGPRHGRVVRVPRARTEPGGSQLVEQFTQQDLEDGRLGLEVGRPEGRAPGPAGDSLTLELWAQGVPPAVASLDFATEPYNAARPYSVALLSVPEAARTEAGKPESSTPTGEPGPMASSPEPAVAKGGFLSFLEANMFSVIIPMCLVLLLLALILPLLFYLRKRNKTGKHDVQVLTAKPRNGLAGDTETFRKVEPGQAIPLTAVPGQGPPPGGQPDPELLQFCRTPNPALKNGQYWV
Binder,"EC50 of T cell-mediated killing (LDH release) of MV-3 cells, human PBMCs, 21 h [1]","EC50 of T cell-mediated killing (LDH release) of WM266-4 cells, human PBMCs, 21 h [1]","EC50 of T cell-mediated killing (LDH release) of MV-3 cells, human PBMCs, 27 h [1]","EC50 of T cell-mediated killing (LDH release) of WM266-4 cells, human PBMCs, 26 h [1]",Comparative binding affinity - Fold increase over parent [2],Comparative binding affinity - Fold increase over parent [3]
B1,0.0409 nM,0.0284 nM,–,–,–,–
B2,0.0884 nM,0.0539 nM,–,–,–,–
B3,–,–,~0.0822 nM,0.0168 nM,–,–
B4,–,–,–,–,5 fold,2.2 fold
B5,–,–,–,–,28.6 fold,10 fold
B6,–,–,~0.0117 nM,0.0129 nM,–,–
